In article PMC3189207 (2011):

B1: Scrib PDZ3 (protein)
chain: PVEEIRLPRAGGPLGLSIVGGSDHSSHPFGVQEPGVFISKVLPRGLAARSGLRVGDRILAVNGQDVRDATHQEAVSALLRPCLELSLLVRRDPAPP
B2: Scrib PDZ2 (protein)
chain: QRHVACLARSERGLGFSIAGGKGSTPYRAGDAGIFVSRIAEGGAAHRAGTLQVGDRVLSINGVDVTEARHDHAVSLLTAASPTIALLLEREAGGP
B3: Scrib PDZ1 (protein)
chain: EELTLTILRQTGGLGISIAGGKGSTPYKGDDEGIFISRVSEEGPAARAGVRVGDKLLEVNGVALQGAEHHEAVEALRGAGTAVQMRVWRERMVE

Tests used:
Assay in all cases: fluorescence polarization
ZNF654 = target: T1, ZNF654 (Homo sapiens)
T1 chain: SSAQPSETIL

ZO2 = target: T2, ZO2 (Homo sapiens)
T2 chain: QSARYDTEL

ABR = target: T3, ABR (Homo sapiens)
T3 chain: RNTLYFSTDV

AHDC1 = target: T4, AHDC1 (Homo sapiens)
T4 chain: PEDTFTVTSL

APC = target: T5, APC (Homo sapiens)
T5 chain: HSGSYLVTSV

ANKS4B = target: T6, ANKS4B (Homo sapiens)
T6 chain: QPGQLVDTSL

| Binder | Kd (ZNF654) | Kd (ZO2) | Kd (ABR) | Kd (AHDC1) | Kd (APC) | Kd (ANKS4B) |
| --- | --- | --- | --- | --- | --- | --- |
| B1 | 18.3 µM | 13.7 µM | 2.9 µM | 10.4 µM | 6.7 µM | 28.2 µM |
| B2 | 32.1 µM | – | 10.4 µM | – | 9.5 µM | – |
| B3 | – | 16 µM | 12.5 µM | 19.2 µM | 12.3 µM | – |
